Assay results from patent US20050196403A1.

Assays:
[1] = molecular target: HLA-A*2401 (human); assay: competition with 125I probe peptide, purified HLA class I
[2] = molecular target: HLA-A*2401 (Human)
[3] = molecular target: HLA-A*0201 (Human); assay: competition vs 125I probe, purified HLA
[4] = molecular target: HLA-A*0206 (Human); assay: competition vs 125I probe, purified HLA
[5] = molecular target: HLA-A*0203 (Human); assay: competition vs 125I probe, purified HLA
[6] = molecular target: HLA-A*0202 (Human); assay: competition vs 125I probe, purified HLA
[7] = molecular target: HLA-A*0201 (Human); assay: competition vs 125I standard peptide, purified HLA
[8] = molecular target: HLA-A*0301 (Human)

With TFSDLWKL (p53 position 18) (peptide) the binding affinity ratio (standard IC50 / test IC50) [1] was 0.0016.
With “p53 peptide … (position 106, 9 amino acids)” the binding affinity ratio (IC50 of standard peptide/IC50 of test peptide) [2] was 0.02.
“p53 peptide TFSDLWKL (position 18, 8 amino acids)” was tested, and the binding affinity ratio (IC50 of standard peptide/IC50 of test peptide) [2] was 0.0016.
In the case of “p53 peptide … (position 125, 10 amino acids)”, the binding affinity ratio (IC50 of standard peptide/IC50 of test peptide) [2] is reported as 5.1.
For “p53 peptide RFEMFREL (position 337, 8 amino acids)”, the binding affinity ratio (IC50 of standard peptide/IC50 of test peptide) [2] was -0.0004.
With p53.69 AAPPVAPA (peptide) the IC50 [3] was 5000 nM.
Substance p53.129B7V9 ALNKMFBQV (peptide) has an IC50 [4] of 49 nM and an IC50 [5] of 23 nM.
p53.135B1B7 BQLAKTBPV (peptide) gave an IC50 [4] of 67 nM, an IC50 [5] of 15 nM and an IC50 [6] of 71 nM.
p53.135B1L2B7 BLLAKTBPV (peptide) showed an IC50 [4] of 64 nM, an IC50 [5] of 7.7 nM and an IC50 [3] of 46 nM.
Substance “p53 peptide … (position 102, 10 amino acids)” has a binding affinity ratio (IC50 of standard peptide/IC50 of test peptide) [2] of 0.12.
Work on RFEMFREL (p53 position 337) (peptide) yielded a binding affinity ratio (standard IC50 / test IC50) [1] of -0.0004.
“p53 peptide TYQGSYGF (position 102, 8 amino acids)” was tested, and the binding affinity ratio (IC50 of standard peptide/IC50 of test peptide) [2] was 0.11.
ELNEALEL (peptide) showed a binding affinity ratio (ratio to standard peptide) [7] of -0.0002.
Substance EALELKDA (peptide) has a binding affinity ratio (ratio to standard peptide) [7] of -0.0002.
“p53 peptide SYGFRLGF (position 106, 8 amino acids)” was tested, and the binding affinity ratio (IC50 of standard peptide/IC50 of test peptide) [2] was 0.028.
In the case of PLDGEYFT (peptide), the binding affinity ratio (ratio to standard peptide) [7] is reported as -0.0002.
p53 peptide HMTEVVRR (position 168) showed a binding affinity ratio (IC50 of standard peptide/IC50 of test peptide) [8] of 0.0046.
With “p53 peptide … (position 117, 10 amino acids)” the binding affinity ratio (IC50 of standard peptide/IC50 of test peptide) [2] was 0.0001.
